{"source": "paper PMC7375243", "about": "“Structural Basis of Human Helicase DDX21 in RNA Binding, Unwinding, and Antiviral Signal Activation” (Advanced Science, 2020)", "key": {"[1]": {"target": "the molecule itself", "assay": "SEC; gel filtration of DDX21 del-C (1-710) and del-NC (188-710), data not shown; final SEC buffer of del-C with 200 mM NaCl"}, "DDX21 full-length": {"target": "T1, DDX21 full-length (human, UniProt Q9NR30 1-783)", "T1 sequence": "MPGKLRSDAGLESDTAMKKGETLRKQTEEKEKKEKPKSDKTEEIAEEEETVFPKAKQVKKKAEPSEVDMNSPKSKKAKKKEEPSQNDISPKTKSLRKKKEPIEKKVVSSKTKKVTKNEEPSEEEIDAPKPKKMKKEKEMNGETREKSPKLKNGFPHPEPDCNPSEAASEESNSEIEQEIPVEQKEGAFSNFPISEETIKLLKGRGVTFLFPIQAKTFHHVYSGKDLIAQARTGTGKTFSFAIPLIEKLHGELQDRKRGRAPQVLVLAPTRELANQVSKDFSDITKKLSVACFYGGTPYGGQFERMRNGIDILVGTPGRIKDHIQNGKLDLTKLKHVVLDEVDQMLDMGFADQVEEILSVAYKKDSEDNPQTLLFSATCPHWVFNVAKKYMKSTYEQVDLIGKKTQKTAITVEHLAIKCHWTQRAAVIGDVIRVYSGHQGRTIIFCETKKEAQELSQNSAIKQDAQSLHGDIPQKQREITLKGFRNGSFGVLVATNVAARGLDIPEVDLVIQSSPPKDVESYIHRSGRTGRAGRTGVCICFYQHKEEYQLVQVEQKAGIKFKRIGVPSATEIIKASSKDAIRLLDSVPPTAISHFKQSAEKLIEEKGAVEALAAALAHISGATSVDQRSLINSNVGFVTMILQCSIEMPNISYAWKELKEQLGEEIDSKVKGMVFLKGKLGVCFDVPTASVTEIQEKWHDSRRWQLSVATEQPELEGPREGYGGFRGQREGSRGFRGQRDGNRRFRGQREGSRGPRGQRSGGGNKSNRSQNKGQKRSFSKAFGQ", "assay": "UV crosslinking/MST/SEC (method for this pair not specified); MST: 50 mM Tris pH 7.5, 50 mM KCl, 2 mM MgCl2, 1 mM TCEP, 0.01% NP-40, 0.05 mg/mL BSA, 2 mM AMPPNP, 50 nM FAM-RNA; temperature not given; crosslinking buffer not in material", "conditions": "protein: recombinant; tags: N-terminal His-SUMO, removed by ULP1; chain copies: 3; single strand"}, "[2]": {"target": "T2, DDX21 helicase core (D1D2, DDX21-delNC) (human, UniProt Q9NR30 188-563)", "T2 sequence": "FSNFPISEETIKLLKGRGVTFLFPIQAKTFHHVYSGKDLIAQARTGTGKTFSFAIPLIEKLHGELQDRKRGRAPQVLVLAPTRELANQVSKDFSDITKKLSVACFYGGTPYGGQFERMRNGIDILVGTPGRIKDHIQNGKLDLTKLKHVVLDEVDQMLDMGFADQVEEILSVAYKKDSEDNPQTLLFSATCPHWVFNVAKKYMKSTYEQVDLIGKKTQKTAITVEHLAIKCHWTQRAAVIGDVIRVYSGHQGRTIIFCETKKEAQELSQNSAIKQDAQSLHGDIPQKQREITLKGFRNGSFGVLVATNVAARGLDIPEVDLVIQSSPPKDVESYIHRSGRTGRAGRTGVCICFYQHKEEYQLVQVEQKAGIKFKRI", "assay": "crystal structure; AMPPNP, Mg2+; 2.24 A, 7 nt visible; MST: 50 mM Tris pH 7.5, 50 mM KCl, 2 mM MgCl2, 1 mM TCEP, 0.01% NP-40, 0.05 mg/mL BSA, 2 mM AMPPNP, 50 nM FAM-RNA; temperature not given; crosslinking buffer not in material", "conditions": "protein: recombinant; tags: N-terminal His-SUMO, removed by ULP1; single strand"}, "[3]": {"target": "the molecule itself", "assay": "SAXS; beamline BL19U2, 1-3 mg/mL protein; 20 mM Tris-HCl pH 7.5, 1 mM TCEP, 100 mM NaCl for DDX21 (188-563), 500 mM NaCl for DDX21 (1-783); ab initio envelopes (GASBOR)"}}, "data": [{"binder": "DDX21 del-NC (188-710) (domain or fragment, human, UniProt Q9NR30-1 188-710, looked up, human DDX21, residues 188-710) FSNFPISEETIKLLKGRGVTFLFPIQAKTFHHVYSGKDLIAQARTGTGKTFSFAIPLIEKLHGELQDRKRGRAPQVLVLAPTRELANQVSKDFSDITKKLSVACFYGGTPYGGQFERMRNGIDILVGTPGRIKDHIQNGKLDLTKLKHVVLDEVDQMLDMGFADQVEEILSVAYKKDSEDNPQTLLFSATCPHWVFNVAKKYMKSTYEQVDLIGKKTQKTAITVEHLAIKCHWTQRAAVIGDVIRVYSGHQGRTIIFCETKKEAQELSQNSAIKQDAQSLHGDIPQKQREITLKGFRNGSFGVLVATNVAARGLDIPEVDLVIQSSPPKDVESYIHRSGRTGRAGRTGVCICFYQHKEEYQLVQVEQKAGIKFKRIGVPSATEIIKASSKDAIRLLDSVPPTAISHFKQSAEKLIEEKGAVEALAAALAHISGATSVDQRSLINSNVGFVTMILQCSIEMPNISYAWKELKEQLGEEIDSKVKGMVFLKGKLGVCFDVPTASVTEIQEKWHDSRRWQLSVATE", "values": [{"measurement": "stoichiometry N", "setting": "[1]", "value": 2}]}, {"binder": "UUUUUUUUUUUUUUU (ssRNA)", "note": "[U15]", "values": [{"measurement": "binding result", "setting": "DDX21 full-length", "value": "binds"}, {"measurement": "binding result", "setting": "[2]", "value": "binds"}]}, {"binder": "DDX21 del-C (1-710) (domain or fragment, human, UniProt Q9NR30-1 1-710, looked up, human DDX21, residues 1-710; source: E. coli BL21-CodonPlus (DE3)-RIL, purified (Ni-NTA, ULP1 cleavage, Ni-NTA, Superdex 200); not shown: His-sumo, N-terminal, cleaved) MPGKLRSDAGLESDTAMKKGETLRKQTEEKEKKEKPKSDKTEEIAEEEETVFPKAKQVKKKAEPSEVDMNSPKSKKAKKKEEPSQNDISPKTKSLRKKKEPIEKKVVSSKTKKVTKNEEPSEEEIDAPKPKKMKKEKEMNGETREKSPKLKNGFPHPEPDCNPSEAASEESNSEIEQEIPVEQKEGAFSNFPISEETIKLLKGRGVTFLFPIQAKTFHHVYSGKDLIAQARTGTGKTFSFAIPLIEKLHGELQDRKRGRAPQVLVLAPTRELANQVSKDFSDITKKLSVACFYGGTPYGGQFERMRNGIDILVGTPGRIKDHIQNGKLDLTKLKHVVLDEVDQMLDMGFADQVEEILSVAYKKDSEDNPQTLLFSATCPHWVFNVAKKYMKSTYEQVDLIGKKTQKTAITVEHLAIKCHWTQRAAVIGDVIRVYSGHQGRTIIFCETKKEAQELSQNSAIKQDAQSLHGDIPQKQREITLKGFRNGSFGVLVATNVAARGLDIPEVDLVIQSSPPKDVESYIHRSGRTGRAGRTGVCICFYQHKEEYQLVQVEQKAGIKFKRIGVPSATEIIKASSKDAIRLLDSVPPTAISHFKQSAEKLIEEKGAVEALAAALAHISGATSVDQRSLINSNVGFVTMILQCSIEMPNISYAWKELKEQLGEEIDSKVKGMVFLKGKLGVCFDVPTASVTEIQEKWHDSRRWQLSVATE", "values": [{"measurement": "stoichiometry N", "setting": "[1]", "value": 5}]}, {"binder": "full-length DDX21 (1-783) (enzyme, human, UniProt Q9NR30-1 1-783, looked up, human DDX21, residues 1-783, codon-optimised synthetic gene; The text says it might be a trimer (SAXS, gel filtration); also called WT DDX21; RNA helicase DDX21; source: E. coli BL21-CodonPlus (DE3)-RIL, purified (Ni-NTA, ULP1 cleavage, Ni-NTA, Superdex 200); not shown: His-sumo, N-terminal, cleaved) MPGKLRSDAGLESDTAMKKGETLRKQTEEKEKKEKPKSDKTEEIAEEEETVFPKAKQVKKKAEPSEVDMNSPKSKKAKKKEEPSQNDISPKTKSLRKKKEPIEKKVVSSKTKKVTKNEEPSEEEIDAPKPKKMKKEKEMNGETREKSPKLKNGFPHPEPDCNPSEAASEESNSEIEQEIPVEQKEGAFSNFPISEETIKLLKGRGVTFLFPIQAKTFHHVYSGKDLIAQARTGTGKTFSFAIPLIEKLHGELQDRKRGRAPQVLVLAPTRELANQVSKDFSDITKKLSVACFYGGTPYGGQFERMRNGIDILVGTPGRIKDHIQNGKLDLTKLKHVVLDEVDQMLDMGFADQVEEILSVAYKKDSEDNPQTLLFSATCPHWVFNVAKKYMKSTYEQVDLIGKKTQKTAITVEHLAIKCHWTQRAAVIGDVIRVYSGHQGRTIIFCETKKEAQELSQNSAIKQDAQSLHGDIPQKQREITLKGFRNGSFGVLVATNVAARGLDIPEVDLVIQSSPPKDVESYIHRSGRTGRAGRTGVCICFYQHKEEYQLVQVEQKAGIKFKRIGVPSATEIIKASSKDAIRLLDSVPPTAISHFKQSAEKLIEEKGAVEALAAALAHISGATSVDQRSLINSNVGFVTMILQCSIEMPNISYAWKELKEQLGEEIDSKVKGMVFLKGKLGVCFDVPTASVTEIQEKWHDSRRWQLSVATEQPELEGPREGYGGFRGQREGSRGFRGQRDGNRRFRGQREGSRGPRGQRSGGGNKSNRSQNKGQKRSFSKAFGQ", "values": [{"measurement": "stoichiometry N", "setting": "[3]", "value": 3}]}]}
